Assay results as given in patent US20220267464A1 (Hoffmann-La Roche, published 2022).
Changes are numbered by the printed parent chain. Names and notes keep the numbering of the source.

B1: A5B7 parental murine anti-CEA antibody (antibody, V domains shown)
VH: EVKLVESGGGLVQPGGSLRLSCATSGFTFTDYYMNWVRQPPGKALEWLGFIGNKANGYTTEYSASVKGRFTISRDKSQSILYLQMNTLRAEDSATYYCTRDRGLRFYFDYWGQGTTLTVSS
VL: QTVLSQSPAILSASPGEKVTMTCRASSSVTYIHWYQQKPGSSPKSWIYATSNLASGVPARFSGSGSGTSYSLTISRVEAEDAATYYCQHWSSKPPTFGGGTKLEIK
notes: also called parental chimeric antibody
B2: A5H1EL1D humanized anti-CEA antibody (format in the assay not stated) (antibody, V domains shown)
VH: EVQLLESGGGLVQPGGSLRLSCAASGFTFTDYYMNWVRQAPGKGLEWLGFIGNKANAYTTEYSASVKGRFTISRDKSKNTLYLQMNSLRAEDTATYYCTRDRGLRFYFDYWGQGTTVTVSS
VL: EIVLTQSPATLSLSPGERATLSCRASSSVTYIHWYQQKPGQAPRSWIYATSNLASGIPARFSGSGSGTDFTLTISSLEPEDFAVYYCQHWSSKPPTFGQGTKLEIK
notes: also called huA5B7; 3-23A5-1E / A5-L1D
B3: P001.177 Fab (Fab, V domains shown)
VH: B2 VH with T28Y, G52S
VL: B2 VL
notes: Fab from E. coli (supernatant or IMAC-purified); Flag tag; also called CEA (P001.177)
B4: P002.139 Fab (Fab, V domains shown)
VH: B2 VH with T28Y, Y33A, F50V, G52S
VL: B2 VL with R24H
notes: Fab from E. coli (supernatant or IMAC-purified); Flag tag; also called CEA (P002.139)
B5: P005.097 Fab (Fab, V domains shown)
VH: B2 VH with Y107S
VL: B2 VL with K93Q
notes: Fab from E. coli (supernatant or IMAC-purified); Flag tag; also called CEA (P005.097)
B6: P005.102 Fab (Fab, V domains shown)
VH: B2 VH with L104I, Y107Q
VL: B2 VL with P94S
notes: Fab from E. coli (supernatant or IMAC-purified); Flag tag; also called CEA (P005.102)
B7: P005.103 Fab (Fab, V domains shown)
VH: B2 VH with L104I
VL: B2 VL with K93I, P94S
notes: Fab from E. coli (supernatant or IMAC-purified); Flag tag; also called CEA (P005.103)
B8: P006.038 Fab (Fab, V domains shown)
VH: B2 VH with L104I, Y107G
VL: B2 VL with K93V
notes: Fab from E. coli (supernatant or IMAC-purified); Flag tag; also called CEA (P006.038)

target: T1, human CEA (CEACAM5), form in the assay not stated (human, UniProt P06731 35-685, limits assumed); assay: SPR
T1 sequence: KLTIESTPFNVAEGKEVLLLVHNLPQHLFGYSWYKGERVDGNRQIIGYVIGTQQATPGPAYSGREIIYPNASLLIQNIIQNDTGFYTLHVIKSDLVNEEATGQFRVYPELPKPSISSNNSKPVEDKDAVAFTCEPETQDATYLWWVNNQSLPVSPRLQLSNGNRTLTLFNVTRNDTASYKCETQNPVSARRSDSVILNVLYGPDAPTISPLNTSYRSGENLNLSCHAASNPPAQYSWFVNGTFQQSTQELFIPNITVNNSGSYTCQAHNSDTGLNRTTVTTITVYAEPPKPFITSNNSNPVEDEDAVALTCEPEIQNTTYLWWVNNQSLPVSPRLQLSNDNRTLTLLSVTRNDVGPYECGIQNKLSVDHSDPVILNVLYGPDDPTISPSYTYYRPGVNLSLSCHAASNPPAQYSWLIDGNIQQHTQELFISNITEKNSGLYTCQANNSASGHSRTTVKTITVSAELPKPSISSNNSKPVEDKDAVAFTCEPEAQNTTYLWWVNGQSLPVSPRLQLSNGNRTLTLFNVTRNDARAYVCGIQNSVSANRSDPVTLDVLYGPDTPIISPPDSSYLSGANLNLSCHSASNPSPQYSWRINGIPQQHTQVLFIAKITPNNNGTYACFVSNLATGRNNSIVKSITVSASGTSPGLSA

First: B1
Second: B2
The Kd of the first is 3.1-fold lower: about 0.8 nM for the first, about 2.5 nM for the second. The first binds more tightly here.

Target: T2, hu N(A2-B2)A-avi-His (human, biotin on the avi tag where used biotinylated)
T2 construct: chimeric soluble antigen; also called hu N(A2-B2)A-avi-His B; human CEA (A2 domain)
T2 chain: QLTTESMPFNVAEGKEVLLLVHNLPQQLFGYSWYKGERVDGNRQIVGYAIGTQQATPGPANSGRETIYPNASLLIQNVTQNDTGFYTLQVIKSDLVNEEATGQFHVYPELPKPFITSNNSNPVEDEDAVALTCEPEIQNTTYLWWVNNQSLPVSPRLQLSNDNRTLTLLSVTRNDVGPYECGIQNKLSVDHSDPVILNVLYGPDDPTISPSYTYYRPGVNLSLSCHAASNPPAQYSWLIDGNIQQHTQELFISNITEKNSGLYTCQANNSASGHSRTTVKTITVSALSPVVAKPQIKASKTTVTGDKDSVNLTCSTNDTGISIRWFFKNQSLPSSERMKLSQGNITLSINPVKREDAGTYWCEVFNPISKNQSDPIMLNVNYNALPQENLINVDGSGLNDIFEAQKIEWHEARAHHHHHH
Assay: SPR (ProteOn XPR36), purified Fab, biotinylated antigen on NLC chip
Method: Affinity (KD) of purified Fab fragments was measured by surface plasmon resonance using a Proteon XPR36 machine using the same setup as described before.
About 2000, 1000, 500, and 250 RU of biotinylated N(A2B2)A-avi-His were immobilized on 4 channels of a Streptavidin-coated NLC chip in vertical orientation. As a control for non-specific binding, 2000 RU of biotinylated NA(B2)A-avi-His protein was immobilized on channel 5. For the determination of the affinity (KD) of the purified clones, injection direction was changed to horizontal orientation. Two-fold dilution series of purified Fab fragments (varying concentration ranges between 100 and 3 nM) were injected simultaneously at 100 μl/min along separate channels 1-5, with association times of 100 s, and dissociation times of 1200 s. Buffer (PBST) was injected along the sixth channel to provide an “in-line” blank for referencing. Regeneration was performed with 10 mM glycine pH 1.5 for 35 s at 50 μl/min (vertical orientation).
Association rate constants (kon) and dissociation rate constants (koff) were calculated using a simple one-to-one Langmuir binding model in ProteOn Manager v3.1 software by simultaneously fitting the association and dissociation sensorgrams. The equilibrium dissociation constant (KD) was calculated as the ratio koff/kon.

Compared with B3, B4 is 2.2-fold higher in Kd: 0.29 nM for the first, 0.63 nM for the second. The first binds more tightly here.

Compared with B5, B6 is 3.1-fold lower in Kd: 0.91 nM for the first, 0.29 nM for the second. The second binds more tightly here.

First: B7
Second: B8
The Kd of the first is 2-fold higher: 0.5 nM for the first, 0.25 nM for the second. The second binds more tightly here.

B3 and B4 are within 1.5-fold of each other in koff: 7.85e-05 s⁻¹ for the first, 6.53e-05 s⁻¹ for the second.

Going from B5 to B6, the koff falls from 8.54e-05 s⁻¹ to 3.92e-05 s⁻¹ (2.2-fold).

B7 and B8 are within 1.5-fold of each other in koff: 4.99e-05 s⁻¹ for the first, 5.78e-05 s⁻¹ for the second.

First: B3
Second: B4
The kon of the first is 2.5-fold higher: 267000 M⁻¹ s⁻¹ for the first, 105000 M⁻¹ s⁻¹ for the second.

B5 and B6 are within 1.5-fold of each other in kon: 94000 M⁻¹ s⁻¹ for the first, 134000 M⁻¹ s⁻¹ for the second.

First: B7
Second: B8
The kon of the first is 2.2-fold lower: 100000 M⁻¹ s⁻¹ for the first, 225000 M⁻¹ s⁻¹ for the second.

Target: T2, hu N(A2-B2)A-avi-His
Assay: SPR (ProteOn XPR36), Fab in bacterial supernatant, biotinylated antigen on NLC chip
Text: (§1) For this experiment, about 2000, 1000, and 500 RU of biotinylated N(A2B2)A-avi-His were immobilized on 3 channels using a Streptavidin-coated NLC chip in vertical orientation. As a control for non-specific binding, 2000 RU of biotinylated NA(B2)A-avi-His protein was immobilized on channel 4. For the off-rate analysis of the identified ELISA-positive clones, injection direction was changed to horizontal orientation. Before injection, each Fab-containing bacterial supernatant was filtered and 3-fold diluted with PBS. The association time was 100 s at 100 μl/minute and dissociation times were either 600 or 1200 s. Bacterial supernatant without Fab fragment was used for referencing. Regeneration was performed with 10 mM glycine pH 1.5 for 35 s at 50 μl/min (vertical orientation).
(§2) Dissociation rate constants (koff) were calculated using a simple one-to-one Langmuir binding model in ProteOn Manager v3.1 software by simultaneously fitting the sensorgrams. […] Shortlisted clones were re-evaluated in an additional SPR experiments under the same conditions. […] Bacterial supernatant without Fab fragment was used for referencing.

First: B3
Second: B4
The koff of the first is 1.5-fold higher: 9.81e-05 s⁻¹ for the first, 6.47e-05 s⁻¹ for the second.

Compared with B5, B6 is 2.1-fold lower in koff: 8.87e-05 s⁻¹ for the first, 4.24e-05 s⁻¹ for the second.

B7 and B8 are within 1.5-fold of each other in koff: 5.37e-05 s⁻¹ for the first, 7.41e-05 s⁻¹ for the second.

Target: T3, NA(B2)A-avi-His (human, biotin on the avi tag)
T3 construct: chimeric soluble control antigen without the CEACAM5 A2 domain
T3 chain: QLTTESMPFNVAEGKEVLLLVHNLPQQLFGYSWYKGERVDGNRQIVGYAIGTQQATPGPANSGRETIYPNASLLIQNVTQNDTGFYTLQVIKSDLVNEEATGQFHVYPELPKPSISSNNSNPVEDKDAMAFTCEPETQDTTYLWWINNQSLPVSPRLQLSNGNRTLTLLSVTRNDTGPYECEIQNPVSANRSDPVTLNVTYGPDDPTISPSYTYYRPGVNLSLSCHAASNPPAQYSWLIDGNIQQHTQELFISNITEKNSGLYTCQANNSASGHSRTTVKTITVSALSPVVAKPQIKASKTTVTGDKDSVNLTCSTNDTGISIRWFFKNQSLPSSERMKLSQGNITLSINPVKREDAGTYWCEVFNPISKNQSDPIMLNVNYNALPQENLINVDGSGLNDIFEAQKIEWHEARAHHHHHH
Assay: SPR (ProteOn), Fab in bacterial supernatant, 2000 RU antigen
Text: as §1, §2

B3: no binding.
B4: no binding.
B5: no binding.
B6: no binding.
B7: no binding.
B8: no binding.
